Laboratory results: patent publication US20250376518A1 (UNIVERSITE DE MONTPELLIER, published 2025)

B1: IGF1202-d2 (red-labeled IGF1202) (VHH)
chain: QVQLVQSGGGLVQAGGSLRLSCAASVRFFSINTMGWYRQAPGKQRELVADITSSGSTNYADSGKGRFTISRDNAKNTVYLQMNRLKPEDTAVYYCHADYKYTTHNTAWGQGTQVTVSSEPKIPQPQPKPQPQPQPQPQPKPQPKPEPQVQLVQSGGGLVQAGGSLRLSCAASGRTFSSFAMAWFRQAPGKEREFVAAISWSGSTGHADSVKGRFTITRDNAKNTVFLQMNSLKPEDTAVYYCALGKGSSYYYSPSGYDYWGQGTQVTVSSLEHHHHHH
modifications: d2 fluorophore coupled with d2-NHS, conditions set for 2 to 3 fluorophores per nanobody; sites not stated
notes: also called red-labled IGF1202
B2: IGF-1202 (IGF-1168 HcAb IGF-1159), biparatopic IGF1202-tag6xHIS (VHH)
chain: B1 chain
B3: IGF-1168 nanobody (VHH)
VHH: QVQLVQSGGGLVQAGGSLRLSCAASVRFFSINTMGWYRQAPGKQRELVADITSSGSTNYADSGKGRFTISRDNAKNTVYLQMNRLKPEDTAVYYCHADYKYTTHNTAWGQGTQVTVSS
notes: PAM nanobody, mGlu2 specific; not shown: His tag (nanobodies in the assay are His-tagged)
B4: IGF-1252 (IGF-1159 HcAb IGF-1168) (VHH)
chain: QVQLVQSGGGLVQAGGSLRLSCAASGRTFSSFAMAWFRQAPGKEREFVAAISWSGSTGHADSVKGRFTITRDNAKNTVFLQMNSLKPEDTAVYYCALGKGSSYYYSPSGYDYWGQGTQVTVSSEPKIPQPQPKPQPQPQPQPQPKPQPKPEPQVQLVQSGGGLVQAGGSLRLSCAASVRFFSINTMGWYRQAPGKQRELVADITSSGSTNYADSGKGRFTISRDNAKNTVYLQMNRLKPEDTAVYYCHADYKYTTHNTAWGQGTQVTVSSLEHHHHHH
notes: Bivalent biparatopic nanobody, two VHH in tandem
B5: IGF-1262 (IGF-1168 HcAb IGF-1168) (VHH)
chain: QVQLVQSGGGLVQAGGSLRLSCAASVRFFSINTMGWYRQAPGKQRELVADITSSGSTNYADSGKGRFTISRDNAKNTVYLQMNRLKPEDTAVYYCHADYKYTTHNTAWGQGTQVTVSSEPKIPQPQPKPQPQPQPQPQPKPQPKPEPQVQLVQSGGGLVQAGGSLRLSCAASVRFFSINTMGWYRQAPGKQRELVADITSSGSTNYADSGKGRFTISRDNAKNTVYLQMNRLKPEDTAVYYCHADYKYTTHNTAWGQGTQVTVSSLEHHHHHH
B6: IGF-1201 (IGF-1168 GS IGF-1159) (VHH)
chain: QVQLVQSGGGLVQAGGSLRLSCAASVRFFSINTMGWYRQAPGKQRELVADITSSGSTNYADSGKGRFTISRDNAKNTVYLQMNRLKPEDTAVYYCHADYKYTTHNTAWGQGTQVTVSSGGGGSGGGGSGGGGSQVQLVQSGGGLVQAGGSLRLSCAASGRTFSSFAMAWFRQAPGKEREFVAAISWSGSTGHADSVKGRFTITRDNAKNTVFLQMNSLKPEDTAVYYCALGKGSSYYYSPSGYDYWGQGTQVTVSSLEHHHHHH
notes: as for B4
B7: IGF-1251 (IGF-1159 GS IGF-1168) (VHH)
chain: QVQLVQSGGGLVQAGGSLRLSCAASGRTFSSFAMAWFRQAPGKEREFVAAISWSGSTGHADSVKGRFTITRDNAKNTVFLQMNSLKPEDTAVYYCALGKGSSYYYSPSGYDYWGQGTQVTVSSGGGGSGGGGSGGGGSQVQLVQSGGGLVQAGGSLRLSCAASVRFFSINTMGWYRQAPGKQRELVADITSSGSTNYADSGKGRFTISRDNAKNTVYLQMNRLKPEDTAVYYCHADYKYTTHNTAWGQGTQVTVSSLEHHHHHH
notes: as for B4
B8: IGF-1261 (IGF-1168 GS IGF-1168) (VHH)
chain: QVQLVQSGGGLVQAGGSLRLSCAASVRFFSINTMGWYRQAPGKQRELVADITSSGSTNYADSGKGRFTISRDNAKNTVYLQMNRLKPEDTAVYYCHADYKYTTHNTAWGQGTQVTVSSGGGGSGGGGSGGGGSQVQLVQSGGGLVQAGGSLRLSCAASVRFFSINTMGWYRQAPGKQRELVADITSSGSTNYADSGKGRFTISRDNAKNTVYLQMNRLKPEDTAVYYCHADYKYTTHNTAWGQGTQVTVSSLEHHHHHH

The binders below were run against T1, mouse mGlu2 receptor in brain tissue sections of wild-type C57BL/6J mice (mouse, UniProt Q14BI2 19-872) (assay: ex vivo immunohistofluorescence on mouse brain sections; no labeling in sections from mGlu2-/- mouse).
T1 construct: whole, on cells; Endogenous receptor in fixed tissue sections; mGlu2-/- mouse sections were the negative control
Procedure: Histological processing of brains. Wild-type C57BL/6J mice were purchased from Janvier Labs and brains from mGlu2−/− mice were kindly provided by Dr. Gonzalez-Maeso. Mice were anesthetized (Euthasol Vet 8%, Alcyon, Pau, France) and sacrificed by a cardiac perfusion of 4% paraformaldehyde (PFA). Brains were extracted and fixed in a 4% PFA solution (Euromedex, Souffelweyersheim, France) overnight at 4° C. Brains were rinsed in PBS and cryoprotected in a 30% sucrose solution for 4 days at 4° C. Brains were then included in OCT (Tissue-Tek, Sakura Finetek, Villeneuve d′Asq, France), quickly frozen in acetone chilled on dry ice and conserved at −80° C. until use. Frozen brains included in OCT, were put at −20° C. 24 h prior cryo-sectioning. They were then mounted on a cryostat (Leica, Nanterre, France) and 16 um coronal or sagittal sections were performed and directly mounted on Superfrost Plus glass slides (Microm) and kept at −20° C., until use. For immunohistofluorescence experiments, coronal and sagittal brain tissue sections of WT and mGlu2^{-/-} mice were blocked 1 h at 25° C. with a blocking solution (3% BSA, 0.1% Triton X100 in PBS) and incubated with IGF1202-d2 (200 nM), overnight at 4° C., to label mGlu2 receptors. Sections were washed with PBS with distilled water and mounted using […]

T1 sequence (Q14BI2 19-872): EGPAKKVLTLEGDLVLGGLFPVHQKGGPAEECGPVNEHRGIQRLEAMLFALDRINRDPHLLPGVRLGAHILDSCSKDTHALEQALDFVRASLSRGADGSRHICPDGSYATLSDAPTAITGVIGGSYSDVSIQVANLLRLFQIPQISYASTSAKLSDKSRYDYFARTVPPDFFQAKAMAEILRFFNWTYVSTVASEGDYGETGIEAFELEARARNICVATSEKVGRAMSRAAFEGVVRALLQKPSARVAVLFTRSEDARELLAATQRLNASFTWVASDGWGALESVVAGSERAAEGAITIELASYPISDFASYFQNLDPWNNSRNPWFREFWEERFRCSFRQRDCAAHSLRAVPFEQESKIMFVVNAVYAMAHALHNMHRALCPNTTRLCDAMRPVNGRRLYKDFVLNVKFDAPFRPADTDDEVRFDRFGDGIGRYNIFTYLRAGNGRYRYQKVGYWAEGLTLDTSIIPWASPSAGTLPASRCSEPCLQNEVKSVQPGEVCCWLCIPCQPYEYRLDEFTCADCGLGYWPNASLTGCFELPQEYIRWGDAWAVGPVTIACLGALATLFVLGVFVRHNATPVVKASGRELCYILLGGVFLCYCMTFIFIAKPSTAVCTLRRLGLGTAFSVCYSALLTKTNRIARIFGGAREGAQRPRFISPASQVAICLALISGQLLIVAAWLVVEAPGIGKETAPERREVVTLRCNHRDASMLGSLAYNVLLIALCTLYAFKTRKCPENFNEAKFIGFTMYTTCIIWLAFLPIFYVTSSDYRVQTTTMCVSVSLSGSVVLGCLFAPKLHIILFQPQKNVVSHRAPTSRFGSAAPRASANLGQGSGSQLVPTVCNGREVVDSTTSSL

| binding result | Binder |
| --- | --- |
| binds | B1 |

Each binder was assayed against T2, rat SNAP-tagged mGlu2 receptor (wild-type rat mGlu2 subunit with an HA-tag and a SNAP inserted just after the … (rat, UniProt P31421 19-872, SNAP tag labelled with SNAP-Lumi4-Tb in the TR-FRET binding assay)) (assay: TR-FRET saturation binding on HEK293 cells with SNAP-mGlu2, in the presence of agonist LY379268 1 uM; reference IGF1168).
T2 construct: whole, on cells; Transiently transfected HEK293 cells; also called SNAP-mGlu2; mGluR2; not shown: HA-tag inserted just after the signal peptide; SNAP tag inserted just after the signal peptide
Procedure: (§1) Binding experiments by TR-FRET. HEK293 cells (ATCC CRL-1573) were transfected with rat SNAP-tagged mGlu2 receptors (Maurel et al. Nature Methods 2008). 24 h after transfection, cells were labeled in 150 mm cell culture plate with 100 nM SNAP-Lumi4Tb in DMEM-GlutaMAX for 1 h at 37° C., and then washed 3 times with Krebs buffer (10 mM Hepes pH7.4, 146 mM NaCl, 4.2 mM KCl, 1 mM CaCl2, 0.5 mM MgCl2, 5.6 mM glucose and bovine serum albumin 0.1%). Cells were detached using cell dissociation buffer (Sigma aldrich) transferred at 10 000 cells per well in a white 384-well plate (Greiner bio-one, PS, F-bottom, small volume, Hibase, medium binding). […] FRET signal was determined by measuring the sensitized acceptor emission (665 nm) and Tb donor emission (620 nm) using a 50 μs delay and 450 us integration time upon excitation at 337 nm on a PHERAstar FS plate-reader (BMG LabTech, Ortenberg, Germany). TR-FRET (or HTRF) ratio (665 nm/620 nm×10⁴, Cisbio patent 8 U.S. Pat. No. 5,527,684) was calculated for preventing interferences due to medium variability and chemical compound or to normalize experiments when using cells expressing different receptor levels. […]

T2 sequence (P31421 19-872): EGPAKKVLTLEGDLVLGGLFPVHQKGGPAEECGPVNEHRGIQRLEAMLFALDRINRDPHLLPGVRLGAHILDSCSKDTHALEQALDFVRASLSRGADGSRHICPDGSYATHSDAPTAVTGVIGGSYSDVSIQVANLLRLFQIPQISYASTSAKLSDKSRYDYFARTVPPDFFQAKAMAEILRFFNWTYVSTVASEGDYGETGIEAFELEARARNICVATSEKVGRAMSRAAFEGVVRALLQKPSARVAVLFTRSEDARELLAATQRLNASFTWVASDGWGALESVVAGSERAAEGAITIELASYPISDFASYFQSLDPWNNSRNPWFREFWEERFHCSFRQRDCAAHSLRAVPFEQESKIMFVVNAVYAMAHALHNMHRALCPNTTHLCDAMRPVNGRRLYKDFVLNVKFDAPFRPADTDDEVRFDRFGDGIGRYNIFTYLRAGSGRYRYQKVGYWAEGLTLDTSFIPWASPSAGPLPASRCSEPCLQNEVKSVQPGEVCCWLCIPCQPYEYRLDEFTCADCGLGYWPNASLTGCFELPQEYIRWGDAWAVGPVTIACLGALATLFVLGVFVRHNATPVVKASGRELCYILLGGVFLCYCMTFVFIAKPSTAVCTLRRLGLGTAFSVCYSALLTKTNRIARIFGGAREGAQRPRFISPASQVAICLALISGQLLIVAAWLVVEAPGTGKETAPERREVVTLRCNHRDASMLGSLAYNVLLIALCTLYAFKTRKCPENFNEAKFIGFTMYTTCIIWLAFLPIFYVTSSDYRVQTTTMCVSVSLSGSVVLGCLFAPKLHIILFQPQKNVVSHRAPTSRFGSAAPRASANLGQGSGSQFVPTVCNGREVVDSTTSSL

| fold increase in the apparent affinity compared to IGF1168 | Binder |
| --- | --- |
| 10 fold | B2 |

These binders were tested against T2, rat SNAP-tagged mGlu2 receptor … (assay: cell-based or functional assay).

| pEC50, PAM potency (IP1 accumulation) | Binder |
| --- | --- |
| 7.22 -log10 M | B3 |
| 9.16 -log10 M | B2 |

Molecular target: T2, rat SNAP-tagged mGlu2 receptor …
Test: cell-based or functional assay
Remark: another data set of the same source

| pEC50 of the PAM effect on G protein coupling (IP1 accumulation with 0.6 nM LY379268, EC20) | Binder |
| --- | --- |
| 7.94 -log10 M | B4 |
| 7.2 -log10 M | B5 |
| 8.25 -log10 M | B6 |
| 8.81 -log10 M | B2 |
| 7.65 -log10 M | B7 |
| 7.62 -log10 M | B8 |

These binders were tested against T2, rat SNAP-tagged mGlu2 receptor … (assay: apparent affinity, TR-FRET saturation binding on HEK293 cells with SNAP-mGlu2, in the presence of agonist LY379268 1 uM).
Procedure: as §1

| Kd | Binder |
| --- | --- |
| 4.93 nM | B3 |
| 0.3 nM | B2 |

What follows are binders tested against T2, rat SNAP-tagged mGlu2 receptor … (assay: TR-FRET saturation binding on HEK293 cells with Lumi4-Tb-labelled rat SNAP-mGlu2, anti-6His-d2; active conformation (1 uM LY379268)).
Procedure: (§2) Each datapoint represents the mean±s.d. of an individual experiment performed in triplicate.
(§3) Binding experiments by TR-FRET. HEK293 cells (ATCC CRL-1573) were transfected with rat SNAP-tagged mGlu2 receptors (Maurel et al. Nature Methods 2008). 24 h after transfection, cells were labeled in 150 mm cell culture plate with 100 nM SNAP-Lumi4Tb in DMEM-GlutaMAX for 1 h at 37° C., and then washed 3 times with Krebs buffer (10 mM Hepes pH7.4, 146 mM NaCl, 4.2 mM KCl, 1 mM CaCl2, 0.5 mM MgCl2, 5.6 mM glucose and bovine serum albumin 0.1%). Cells were detached using cell dissociation buffer (Sigma aldrich) transferred at 10 000 cells per well in a white 384-well plate (Greiner bio-one, PS, F-bottom, small volume, Hibase, medium binding). Increasing concentration of His-tagged nanobodies together with either 1 μM LY379268 (Tocris, Bio-techne, France) or 1 μM LY341495 (Tocris, Bio-techne, France) and with 200 nM of anti-6His-d2 (Tocris, Bio-techne, France) were applied on Lumi4Tb-labeled cells in a final volume of 20 μL and incubated overnight at 20° C. FRET signal was determined by measuring the sensitized acceptor emission (665 nm) and Tb donor emission (620 nm) using a 50 μs delay and 450 us integration time upon excitation at 337 nm on a PHERAstar FS plate-reader (BMG LabTech, Ortenberg, Germany). TR-FRET (or HTRF) ratio (665 nm/620 nm×10⁴, Cisbio patent 8 U.S. Pat. No. 5,527,684) was calculated for preventing interferences due to medium variability and chemical compound or to normalize experiments when using cells expressing different receptor levels.

| pKd | Binder |
| --- | --- |
| 8.77 -log10 M | B4 |
| 8.23 -log10 M | B5 |
| 9.34 -log10 M | B6 |
| 9.27 -log10 M | B2 |
| 8.99 -log10 M | B7 |
| 8.51 -log10 M | B8 |

These binders were tested against T2, rat SNAP-tagged mGlu2 receptor … (assay: TR-FRET saturation binding on HEK293 cells with Lumi4-Tb-labelled rat SNAP-mGlu2, anti-6His-d2; inactive conformation (1 uM LY341495)).
Procedure: as §2, §3

| pKd | Binder |
| --- | --- |
| 8.49 -log10 M | B4 |
| 8.95 -log10 M | B6 |
| 8.87 -log10 M | B2 |
| 8.54 -log10 M | B7 |
